Source: a protein production outcome set (Wang et al. 2014)

Test: label from the status in PepcDB records
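Further: failed if final PepcDB status was selected cloned or expressed and not failed if soluble or beyond.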

Sequence	protein production
MKVMIEKILLVQTLKRLPRMGWLIKGVQEPESIADHSFGVAFITLVLADVLEKRGKRIDVEKALKMAIVHDLAEAIITDIPLSAQEFVDKDKAEALVFKKVFPEFYELYREYQECSSPEAQLVRIADKLDMILQAYQYELSGNKNLDEFWEAIEEIKRLELSKYLEDILNSVGRLKA	not failed
MSASPQAPTPPDRSSPSVSSNLGAEGAGGRRLCGSVVLSAGKILSVDKTLWQALGLSAESLSGLPFLSFLEDPSREVLAARLRLAGPPWDLRTALRVDGRAIPVVLRGDGAADRTTDTPLQVILITLAPQEGEVEPVSQSALFDHIPLGVMLSDGLGRIAYANPAFLAEDIAAVRALLGATPQALATGYLHEGLARTLWEDLLCGRVWRNDVDLPTADGQRTHSRLTIIPLRRDDGAVDRLMTVIEPRSPATDSQAWQQVNHDTLTGLPNRVLFQDRLLTALASARRRNDQLAVLFVDLDHFKTVNDSLGHSFGDQLLQQVATRLSQCLRDSDTLARMGGDEFTIALTGDGHQRDYAMIANRILETLRRPFTLEGGHEVLIGSSIGITLFPNDAEDVDTLLRNADTAMYRAKASGRNAFQFFTEEMNREIQSHLDLENALRRAVRAMDLTIHYQPVVDSATLAVVSAEALVRWPLADKGFIPPSRFIPVAEELGLIDEIGGWVLWNACTQAKVWQAQGAKAFRVSVNVSWRQLRNPDFALRVREALEGTGLGAAFLELEITEGMVLRDPQGIAPALMALSEMGVALAIDNFGSGHSSIKCLRQFPFSILKLDRSCVADVLTSHEDAVLVETAAIMARRLGLTVVAEGVETHAQLEFLREHYCDLIQGYLFGRPLPPEDFARML	failed
MAQLTPLDISFIAGYLLLTLLVGLFFSRRASENVGEFFLSGRKLPWWIAGTGMVATTFAADTPLAVAGFVAKNGIAGNWVWWTFVSGGMLTVFFFARLWRRANILTDLEFIELRYSGKAASFLRGFKAVYFGLFINAVIIGWVNLAMFKIIKIMIPGLDPQLTIVGLVIFTAIYSGMSGLWGVSITDAVQFVIAMAGCIILAVLAVNSPQVTAAGGLKQALPDWMFDFFPSFSSTVNTSATGAYALPFTAFAAMAFVQWWASWYPGAEPGGGGYIAQRMMSAKDEKNSLLATLWFTIAHYCVRPWPWIVVGLASLVMFPNLPAGQKEDGFVHVMNAVLPAGLKGLLIAAFMAAYMSTLSTHLNWGTSYLINDLYKRFIKREAEQNHYVLMSRIVTAVTAIFALYITFYVLETITGAWEFIIQCGAGTGFVLIMRWFWWRLNAWSEITSMVAPIVAYSYINQFTTIVFPESIYIIVLFTITCTLAVTWLTKPTDREKLHAFYRTTRVGGALWKPVADEMPDVKGDTGFPALFADWFFGIVLVYATLFGTGKLIFGEPVAAALYYAAGALAGVMIYRDLSKRNWKTFD	failed
MLEHAAGQPWIYPVLLVFFFIDGFATILPSETAIVGLSALSLHSGEPNLWILGGTALVGAMAGDNMAYMLGRKIGLTRWKWMRRPKVQKMFAWAQYELDKRGAVLIFTARYIPWGRVAVNYVAGQTGFRHRTFFWLDAFACITWVGYSIGIGLLAGQWVHHNPLLGVGIAVAFAVVLGIVVDHALRWWHKYLEKKDVAREAAASSEVKVAEPADLSQKAVAGADLSKPAG	failed
MTEKEKMLAEKWYDANFDQYLINERARAKDICFELNHTRPSATNKRKELIDQLFQTTTDNVSISIPFDTDYGWNVKLGKNVYVNTNCYFMDGGQITIGDNVFIGPNCGFYTATHPLNFHHRNEGFEKAGPIHIGSNTWFGGHVAVLPGVTIGEGSVIGAGSVVTKDIPPHSLAVGNPCKVVRKIDNDLPSETLNDETIK	not failed
MWLLCDCLLCFPLSPEEFLTEILDLLELVFVILVVCEWKPKRFAGEFRLLMEQRVQLRVGTMETISNEGDVDREQVLETFGIENETGKETNGSRSFDVGYSSGDTLETLPKASKVDISPADVLKTLFFILVWYTFSTFLTLYNKTLLGDDLGKFPAPLLMNTIHFSIQAVLSKMITWYWSGRFQPDVTISWRDYFVRVVPTALGTAMDINLSNESLVFISVTFATMVSYFIYYVQICSPNISSSVCFCLQSPSLKLFGIISVISAGVLLTVAKETEFEFWGFVFVMLAAVMSGLKNPFIFMSCVAPVMAIATGLLSLLLDPWSEFRDNKYFDSGAHFARTCFLMLFGGALAFCMVLTEYVLVSVTSAVTVTIAGVVKEAVTIVVAVFYFHDEFTWLKGVGLMIIMVGVSLFNWYKYDKLQKGHKTEEEKQLQAPSQTGKYVILDEMDDQENSP	failed
MMFEGIRIARQMGHNIAIVSPRVDVIIEISHRIKDAFIDEHIDVLHQSSRQQYNGHFVIATIHQLLRFKQHFDTVFVDEVDAFPLSMDPQLSNAIQLASKSNHSHIFMTATPPRHFLKQFPPEKIIKLPARFHRSPLPIPKFKYFKLKSTRKQNLLLNIFRYQINQQRFTLVFINNIEIMNKMYQQYKMDIPDLICVHSEDDLRFEKIEALRRGQHKIVFTTTILERGFTMTHLDVVVVDAGSFQQEALIQIAGRVGRKQQSPSGLVLFLHEGVTLSMILAKRNIISMNRLAIKRGWIDA	failed
MTPFPHASLFTPHSSRITPSLHLPVRLGNATFDTRHRTALTMSADRLEQLKTFHEEDPEDPFTRYALAQEHLKHDNASRALALFEELVETDPDYVGTYYHLGKLYERLDRTDDAIDTYAQGIEVAREEGTQKDLSELQDAKLKAEGVGFD	failed
MTKNEEGRVRRFVIRYVGSGRVPPCWIAGIFALCWGGVALAGGVALQSVDFTALPSENFQLRLGFDGPVPEPRSFTTEHPARIALDLAGVRSDLDKKPIPVHQAGVETVQAIAAGGRTRVILNLATAVPYTTRVAGRFLYVTLQSGKAGSRADDSASAPVVVTERPVVGGPQVESIDFRRGEKGEGRLLVALSDPNSLINLREEGRSVVADLPGTSLPGRLARRLEVIDFATPVKWVEAMPVGRGARLLITPVSDEYDYSSYQSGKLLTVELRPLSRAEKEEAKKRRLVFAGERLSLNFQDIPVRNVLQILADFTNLNIVASDSVQGSVTLRLNEVPWDEALDLVLKAKGLGKRQEANSNVIRVAPLDEINRSERDELEALKVVEDLEPLRTEIIQINYTKADDIKKVIMGTTEKAEKAITRPEALTGGPGVTSTEAYDVTQSILSSRGNVTTDPRTNQLIVQDTPRNLERIRDLVRQLDKPVRQVMIESRVVIANVDFLRELGAKLDFRPKNLTAAERLNPTGSMADLGVDLAKLTTLSPYGTAQYVVSMGDYLLDLELSAAQKEGRGEIVANPRVLTADQSKAKIMQGVELPYQITQQGTGGGIPVQNVAFKPAVLELDVTPHITPDDHILMDLMVKKDDKGELAPNGNFAIEKREIDTVAQVANGETVVLGGVYEGTRRNNTDKVPFFGDLPGIGFMFRRNAVEDRKKELLIFITPKIVKQTSMTP	failed
MKQEFVAAIEIDGTGRIHVTPGESQFPYIYREAMEVSWNESTRSLHSPVPREWSYAQWLQQIFAAASEQGVKLVLGPNTRWVNVPNELRAELTHAAAA	not failed
MPGITFKEDANERGRQIEHWPLLKNGSIFVIADDGTRYFQEDAKHRHGHVYTHGSWLIPMNNQHPYLIFDQTQYDAFKQEESQAGQLPYPKFMTKLVSAPTIAQLAAKLGVPANNLQQTVTDFNHYTEVGRDFEFGRDPQTMRQLDDGPYYAIAALEHHHHHH	not failed
MYRDRIRLPSLMSKVMSAADAAALIEDGMTVGMSGFTRAGEAKAVPHALAERAKVTPLKISLMTGASLGNDLDKQLTESGVLSRRMPFQVDSTLRKAINNGTVMFIDQHLSDTVELLRNRQIKAVDLAVIECVAITEEGHLVLSTSVGNSASFAILAKQVIVEINLSQPLELEGLHDIYIPSYRPTRLPIPVLEADSRIGSHAVKIDPAKIVGIVISNQPDSPSTVTPPDADTQAIANHLVEFFKKEVREDRLTDKLMPLQAGIGNIANAVMHGLLESPFTDLTMYSEVLQDSTFDLFDAGKLTFASGSSMTLSAAKHAEVFADFNRYKSRLVLRPQEISNHPEVIRRLGIIGINTALEFDLYGNVNSTHICGTRMMNGIGGSGDFSRNAHLAIFVTKSIAKGGAISSVVPMVSHVDHTEHDVDILVTEQGLADLRGLAPRERARVIIDNCVHADYRDALNAYFDAACALGGHTPHILREALSWHINLEENGRMLPT	failed
MMILAWILVIIIISVITKWVVHLLTQRQSIYLTKLVITTSCIIQFIIVFFLMKAIVHYLAQALDVFYR	failed
MVGLVACSKQSANQQISYRQTAEATLDKGMDNQPEAPYWFPKQLLKWQLSKDKAAKYNTASVPLAKRIDKWQLPTVNKTQDPKMKVVALSIMNSSTSGNAPRGINTFDANVFSNWQYIDQLVYWGGSAGEGLIVPPTADVIDSAHKNGVPVLGTVFFPQVVSGGKLKWLNDFLKQDADGHFPMADKLVAVAKAYGFDGWFINQETDPEVKSFDSASTGKTATSSTSNGLSKKHAQLMQQLIKEYKQKAGSKLDLMWYDSMTKDGKMDWQNALTKENQSYLVDANMKPVADSMFLNFWWTKKRLASQELLKKSHERAEKLGISPYNLFAGIDVQADGTATPVRWNLFANKQHVPYTSLGLYAPDWTHASSDTVDEFQAKEGALWVNDQNDPSRLEHHHHHH	not failed
MKNTELEQLINEKLNSAAISDYAPNGLQVEGKETVQKIVTGVTASQALLDEAVRLGADAVIVHHGYFWKGESPVIRGMKRNRLKTLLANDINLYGWHLPLDAHPELGNNAQLAALLGITVMGEIEPLVPWGELTMPVPGLELASWIEARLGRKPLWCGDTGPEVVQRVAWCTGGGQSFIDSAARFGVDAFITGEVSEQTIHSAREQGLHFYAAGHHATERGGIRALSEWLNENTDLDVTFIDIPNPA	not failed
MRMSRIQARLLQAIVRPALKTNLLKHAAWRVVLKLRNEFAHAVPPVELETTFDENIRILTSLSDHIESQVFWQGFQEADEGVILLLKRFLPSDGSFIDVGANIGTFTLVAAHRAVRGQVHAFEPSAHHFARLAHNVELNDFKNVALNRKGLYDQPGEAVLFLPSQTGEMNNSGAASLYTSALEETRQVSEAVSLIRLDDYVREKSIGRVDIIKIDIEGAELKALEGARETIARFRPLVFMELDLDNLERAERSPEEVLQYWKSLNYEVSIILLTGETVPVTSPKEFGLHQNLQCRPF	failed
MLNMQRLQTVLLQCAGWLLYMSLLMLIALALPADIFDSQSKHFIFLVGAVGIWRYSMGATHFIRGMIFLYGVYPYLRRKVQKMGNATDPSHVYLMVTSFRIEALTTAQVYSSVIREAINCGFPTTVVCSLVEMSDELLVKSLWAKYNPPAHVKLDIVRIAGTGKRDGLAYGFRAISRMLPDENAVVAVIDGDTVLADGVVRKTVPWFKLFPNVGGLTTNEFCEVRGGYIMSEWHKLRFAQRHINMCSMALSKRVLTMTGRMSMFRASVVTNPEFIADVESDSLMHWRLGRFKFLTGDDKSSWFSLMRLGYDTFYVPDAAINTVEHPPEKSFLKASRKLMYRWYGNNLRQNSRALGLGLRRLGLFTSIVLFDQRVSMWTSLLGLTVAVIASLKFGMAFLLVYLLWIGITRLILTIMLLCSGHNVGPAYPLILYYNQIIGALMKIYVFFRLDKQSWTRQPTALKRDLASFQQWFNTWSSRTMTFSAASIFVAVLFMVV	failed
MKSGVIPSSAVGQKINEWYRYIRTFSVPDAEVLKAEIQQELKHMQHDSNLLLYYSLMEFRHQLMLDYLEPLEKLNIEDQPSLSELSRNIDSNQADLKGLLDYYVNFFRGMYEFDKREFISAITYYKQAEKKLSFVADHIERAEFYFKIAEAYYYMKQTYFSLINIKNAYEIYVEQETYNVRIIQCHFVFGVNLMDERNFEQAARHFKLALNMAQAEQKAQLVGRAYYNLGLCYYNQDLLDPAIDYFEKAVSTFESSRIVNSLPQAYFLITLIYYKQGKHDKASEYHKRGYEYAKETDDADYAVKFEFLQSLYLDQPNEEGIERCFQYLKNKNMYADIEDLALEVAKYYYEQKWFKLSASYFLQVEEARKQIQRSEGLYEIEI	failed
MRKMTGEEFDPLVSFFDGMAQASWLRPVHDRLKKGTGSWANRAVLDVGCGTGRLLARGVHEAAHLAGVDLSKQMVLATEERLHEHKQCGRLTVVQGDAYDLPFADESFDVCLSTCVMFLLPEPERGMKEMIRVLNGAGVIGMLNPTNKMNHAAAKAYCKKSGITGFEEKTLLQWSNVSTRRHRYTAEQLTHFFKQHGAWVVTHELVLDGLAVVTVASWNKLEHHHHHH	not failed
